Reference: US20180305702A1

What was measured:
[1] = biological target: cell surface MHC class I K^b molecules presenting the OVA257-264 SIINFEKL peptide (murine); assay: flow cytometry, K^b-SIINFEKL positive population of DC2.4 cells infected with the SIINFEKL minigene Lm (positive control)
[2] = biological target: H-2K^b on DC2.4 cells not presenting SIINFEKL (cells infected with a non-SIINFEKL-expressing Lm strain; K^b-SIINFEKL negative populations) (murine); assay: flow cytometry, DC2.4 cells infected with a non-SIINFEKL-expressing Lm strain at MOI 20
[3] = biological target: cell surface MHC class I K^b molecules presenting the OVA257-264 SIINFEKL peptide (murine); assay: flow cytometry, K^b-SIINFEKL positive population of DC2.4 cells infected with Lm expressing PSA-Survivin-SIINFEKL
[4] = biological target: cell surface MHC class I K^b molecules presenting the OVA257-264 SIINFEKL peptide (murine); assay: flow cytometry, K^b-SIINFEKL positive population of DC2.4 cells infected with Lm expressing PSA-PSMA-SIINFEKL
[5] = biological target: cell surface MHC class I K^b molecules presenting the OVA257-264 SIINFEKL peptide (murine); assay: flow cytometry, DC2.4 cells infected with ADXS31-2142 at MOI 20, stained five hours post-infection
[6] = biological target: H-2K^b on DC2.4 cells not presenting SIINFEKL (cells infected with a non-SIINFEKL-expressing Lm strain; K^b-SIINFEKL negative populations) (murine); assay: flow cytometry, K^b-SIINFEKL negative populations of infected DC2.4 cells

**Q.** Which results are given for “Alexa Fluor 647 conjugated 25D-1.16 antibody”?
**A.** Mean fluorescence intensity (MFI) [1]: 14900 MFI; percentage of Alexa647+ DC2.4 cells [2]: 0.37%; Mean fluorescence intensity (MFI) [3]: 4780 MFI; Mean fluorescence intensity (MFI) [4]: 2040 MFI; percentage of Alexa647+ DC2.4 cells [5]: 14.6%; Mean fluorescence intensity (MFI) [6]: 300 MFI
